Laboratory results reported in article PMC11281603.

Target: polymeric Ig receptor (pIgR) fused to the FLAG tag (UniProt P01833)
Details: parent: 1.00

Chain of UniProt P01833 (P01833 19-764): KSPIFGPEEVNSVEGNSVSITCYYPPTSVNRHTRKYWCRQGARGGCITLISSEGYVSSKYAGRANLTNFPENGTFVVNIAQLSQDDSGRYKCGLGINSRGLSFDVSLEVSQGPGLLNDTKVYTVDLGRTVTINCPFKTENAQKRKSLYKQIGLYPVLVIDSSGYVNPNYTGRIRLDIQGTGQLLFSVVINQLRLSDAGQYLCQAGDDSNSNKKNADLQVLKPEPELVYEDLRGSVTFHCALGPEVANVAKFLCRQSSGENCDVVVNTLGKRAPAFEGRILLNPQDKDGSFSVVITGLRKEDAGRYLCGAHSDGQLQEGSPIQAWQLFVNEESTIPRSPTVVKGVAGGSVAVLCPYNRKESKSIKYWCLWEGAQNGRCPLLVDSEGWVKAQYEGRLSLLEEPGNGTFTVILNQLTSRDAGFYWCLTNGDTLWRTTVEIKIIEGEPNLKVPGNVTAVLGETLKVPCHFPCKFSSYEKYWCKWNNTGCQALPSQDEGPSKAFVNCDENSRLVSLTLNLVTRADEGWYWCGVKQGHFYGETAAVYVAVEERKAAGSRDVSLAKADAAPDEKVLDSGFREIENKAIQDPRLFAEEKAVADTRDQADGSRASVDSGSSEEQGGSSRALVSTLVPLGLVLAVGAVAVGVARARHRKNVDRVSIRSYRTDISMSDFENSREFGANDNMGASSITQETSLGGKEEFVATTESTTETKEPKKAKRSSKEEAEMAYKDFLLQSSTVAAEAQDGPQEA

Substance	ratio to parent
WT SARS-CoV-2 ORF8 fused to a C-terminal Strep-II tag (from UniProt P0DTC8) C20A	0.43
WT SARS-CoV-2 ORF8 fused to a C-terminal Strep-II tag (from UniProt P0DTC8) R115A	1
